Results on one protein are retold here after article doi:10.1101/2023.05.02.539095 (bioRxiv, 2023).

This data set concerns the molecule itself. As to the kind of experiment: SEC-MALS.

B1: MSMEG_0317-His (wild type, made in E. coli) (natural protein)
chain: MNRAVALRIAACGLLGLGAALLIAALLLTTYTKGKIAKIPLDIDTSLVSDGTATAFDPDSLVAERFKIDRDVPVALQQQMSVEAPSNADVVTFQVGTTLRRTDRQQDAGLLLALVDTVTMNRNTAEAVSSENNPGGAVQKPRAIEDEKPPTNIALPHEGLTYRFPFDTEKKTYPFFDPIAQKAFDANYDGEEDVNGLTTYRFVQNVGYDADGKLADPIKYSSLYEDDADASVTARAEVWGVPGEPDESITMDRFYAASRTFWVDPVSGTIVKSEEHGYQYYAREALKPEVTYVDFKVTTNEESVESQVAAASDERDRIALWTRILPITFTALGLVSLVGGAVLGSFALRTESTLIDPGLDTADHGFFDTQGIQVPGAEAKTEKLPAQRPTDLPPDRPI
Consider B1, for which the “stoichiometry N” value turned out to be 2.
